{
  "source": "paper PMC7939140",
  "biological_target": "BG505SOSIP.664 gp140 NFL (native flexible linker version of wild type) (HIV-1 (BG505 isolate, clade A))",
  "experiment": "native gel or EMSA",
  "data": [
    {"substance": "BG505SOSIP.664 gp140 NFL (native flexible linker version of wild type) (natural protein)", "values": [
      {"measurement": "stoichiometry N", "result": 3}
    ]}
  ]
}
